{"source": "patent US20210188980A1", "about": "(SHANGHAI EPIMAB BIOTHERAPEUTICS, published 2021)", "binders": {"B1": {"name": "HumAb747V-61 (antibody, human IgG1, V domains shown)", "VH": "EVQLVQSGAEVKKPGATVKLSCTASDFNIKDDYMHWVKQRPEQGLDWIGWIVPENANTEYASKFQGKATITADTSTNTAYLELSSLRSEDTAVYYCTVYGDYWGQGTTVTVSS", "VL": "DIQMTQSPSSLSASVGDRVTITCRASQEISGYLSWLQQKPGGAIKRLIYAASTLDSGVPSRFSGSRSGSDYTLTISSLQPEDFADYYCLQYASYPLTFGQGTKLELK", "notes": "human IgG1/kappa constant domains"}, "B2": {"name": "HumAb747-56 (antibody, human IgG1, V domains shown)", "VH": "B1 VH with T23K, K38Q, R40A, E42G, Q43K, D46E, A56G, K67R, A68V, N77D", "VL": "B1 VL with Q79E", "notes": "humanized mAb747; human IgG1/kappa constant domains"}, "B3": {"name": "HumAb747V-72 (antibody, human IgG1, V domains shown)", "VH": "B1 VH with D26G, E54R, A56G, E59V", "VL": "B1 VL with T53A, S56L", "notes": "engineered HumAb747-60 variant; human IgG1/kappa constant domains"}, "B4": {"name": "HumAb747V-68 (antibody, human IgG1, V domains shown)", "VH": "B1 VH with D26G, A56G, E59V", "VL": "B1 VL with T53A, S56L", "notes": "as for B3"}, "B5": {"name": "HumAb747V-64 (antibody, human IgG1, V domains shown)", "VH": "B1 VH with D26G, E54R, A56G, E59M", "VL": "B1 VL with T53A, S56L", "notes": "as for B3"}, "B6": {"name": "HumAb747V-70 (antibody, human IgG1, V domains shown)", "VH": "B1 VH with D26G, E54R, A56G, E59V", "VL": "B1 VL with S56L", "notes": "as for B3"}, "B7": {"name": "HumAb747V-71 (antibody, human IgG1, V domains shown)", "VH": "B1 VH with D26G, E54R, A56G, E59V", "VL": "B1 VL with T53A", "notes": "as for B3"}, "B8": {"name": "FIT107-1-7b-3 (bispecific antibody, human IgG1, kappa, L234A L235A)", "chain 1": "not shown", "chain 2": "EVQLVQSGAEVKKPGATVKLSCTASGFNIKDDYMHWVKQRPEQGLDWIGWIVPRNANTVYASKFQGKATITADTSTNTAYLELSSLRSEDTAVYYCTVYGDYWGQGTTVTVSSASTKGPSVFPLAPSSKSTSGGTAALGCLVKDYFPEPVTVSWNSGALTSGVHTFPAVLQSSGLYSLSSVVTVPSSSLGTQTYICNVNHKPSNTKVDKKVEPKSC", "chain 3": "not shown", "notes": "FIT-Ig hexamer; outer anti-LAG-3 (HumAb747V-73 with G55A), inner anti-PD-1 (HumAb713-7)"}, "B9": {"name": "FIT107-1-6a-2 (bispecific antibody, human IgG1, kappa, L234A L235A)", "chain 1": "not shown", "chain 2": "EVQLVESGGGLVQPGGSLRLSCAASGFTFSFYTMSWVRQAPGKGLEWVATISGGGRDTYYPDSVKGRFTISRDNAKNSLYLQMNSLRAEDTAVYYCAGQGGNYLFAYWGQGTLVTVSSASTKGPSVFPLAPSSKSTSGGTAALGCLVKDYFPEPVTVSWNSGALTSGVHTFPAVLQSSGLYSLSSVVTVPSSSLGTQTYICNVNHKPSNTKVDKKVEPKSC", "chain 3": "DIQMTQSPSSLSASVGDRVTITCRASQEISGYLSWLQQKPGGAIKRLIYAASALDLGVPSRFSGSRSGSDYTLTISSLQPEDFADYYCLQYASYPLTFGQGTKLELKRTVAAPSVFIFPPSDEQLKSGTASVVCLLNNFYPREAKVQWKVDNALQSGNSQESVTEQDSKDSTYSLSSTLTLSKADYEKHKVYACEVTHQGLSSPVTKSFNRGEC", "notes": "FIT-Ig hexamer; outer anti-PD-1 (HumAb709-8), inner anti-LAG-3 (HumAb747V-72 with G55A)"}}, "key": {"[1]": {"target": "T1, recombinant human LAG-3-his protein (Novoprotein) (human, UniProt P18627 23-450)", "T1 construct": "Bought; also called huLAG-3; not shown: His tag", "T1 sequence (looked up)": "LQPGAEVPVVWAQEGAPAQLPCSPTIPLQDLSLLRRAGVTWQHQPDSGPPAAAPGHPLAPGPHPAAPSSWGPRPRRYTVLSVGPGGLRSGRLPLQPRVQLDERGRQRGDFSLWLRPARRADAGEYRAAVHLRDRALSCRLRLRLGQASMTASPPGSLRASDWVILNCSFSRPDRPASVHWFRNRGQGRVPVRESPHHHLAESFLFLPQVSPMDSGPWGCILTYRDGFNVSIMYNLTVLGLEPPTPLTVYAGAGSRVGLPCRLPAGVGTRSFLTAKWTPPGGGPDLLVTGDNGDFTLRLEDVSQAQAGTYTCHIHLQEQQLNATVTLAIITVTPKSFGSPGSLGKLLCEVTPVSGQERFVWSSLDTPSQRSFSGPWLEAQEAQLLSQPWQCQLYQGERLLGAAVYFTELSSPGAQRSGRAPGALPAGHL", "assay": "BLI Octet, Ab on AHC sensor, huLAG-3-his; test group 1", "description": "(§1) All 9 humanized antibodies (Table 25) and a chimeric antibody having the parental murine VH and VL domains (mAb747c) were ranked by dissociation rate constant (koff). Briefly, antibodies were characterized for affinities and binding kinetics by Octet RED96 biolayer interferometry (Pall FortéBio LLC). Antibodies were captured by Anti-HIgG Fc Capture (AHC) Biosensors (Pall) at a concentration of 100 nM for 30 seconds. Sensors were then dipped into running buffer (1× pH7.2 PBS, 0.05% Tween 20, 0.1% BSA) for 60 seconds to check baseline. Binding was measured by dipping sensors into a single concentration of recombinant human LAG-3-his protein (Novoprotein). Dissociation was followed by dipping sensors into running buffer for 1200 seconds. The association and dissociation curves were fitted to a 1:1 Langmuir binding model using FortéBio Data Analysis software (Pall).\n(§2) All 13 humanized antibodies (Table 39) and chimeric anti-LAG-3 antibody mAb747c having the parental murine VH and VL domains were ranked by dissociation rate constant (koff) in the same manner described in Example 9.1 supra. In each test group, the off-rates of antibodies were able to be compared with that of mAb747c. The off-rate ratios were calculated by the off-rate of antibody to that of mAb747c of its group and were compared all together. The lower the ratio was, the higher was the affinity of the antibody."}, "[2]": {"target": "T1, recombinant human LAG-3-his protein …", "assay": "BLI Octet, Ab on AHC sensor, huLAG-3-his; test group 3", "description": "as §1, with “All 18” for “All 9”, “(Table 34)” for “(Table 25)”, “by Octet®RED96” for “by Octet RED96”, “(Pall ForteBio” for “(Pall FortéBio”, “by Anti-hIgG” for “by Anti-HIgG”, “(Pall). In each test group, the off-rates of antibodies were able to be compared with that of mAb747c. The off-rate ratios were calculated by the off-rate of antibody to that of mAb747c of its group and were compared all together. The lower the ratio was, the higher was the affinity of the antibody.” for “(Pall).”"}, "[3]": {"target": "T1, recombinant human LAG-3-his protein …", "assay": "BLI Octet, Ab on AHC sensor, huLAG-3-his; test group 2", "description": "as §1, §2"}, "[4]": {"target": "T1, recombinant human LAG-3-his protein …", "assay": "BLI Octet, FIT-Ig captured, antigen analyte"}, "human PD-1-His protein": {"target": "T2, human PD-1-His protein (human, UniProt Q15116 25-167, limits assumed)", "T2 construct": "also called huPD-1; not shown: His tag", "T2 sequence (Q15116 25-167 limits assumed)": "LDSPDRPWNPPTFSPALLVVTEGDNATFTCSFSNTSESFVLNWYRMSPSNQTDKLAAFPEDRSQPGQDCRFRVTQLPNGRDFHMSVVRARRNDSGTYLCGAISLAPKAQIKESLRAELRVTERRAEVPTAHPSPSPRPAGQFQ", "assay": "BLI Octet, FIT-Ig captured, antigen analyte"}, "Cyno LAG-3-His": {"target": "Cyno LAG-3-His (cynomolgus)", "assay": "BLI Octet, FIT-Ig captured, antigen analyte"}, "Cyno PD-1-His": {"target": "Cyno PD-1-His (cynomolgus, UniProt B0LAJ3 25-170)", "sequence (B0LAJ3 entry or part of it limits assumed)": "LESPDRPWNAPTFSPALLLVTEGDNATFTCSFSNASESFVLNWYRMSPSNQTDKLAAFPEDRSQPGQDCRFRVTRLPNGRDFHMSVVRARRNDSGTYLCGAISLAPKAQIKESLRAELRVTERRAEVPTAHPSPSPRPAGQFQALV", "assay": "BLI Octet, FIT-Ig captured, antigen analyte"}}, "note": "Positions count from the first letter of the chain named. In names and notes the source's numbering stands.", "data": [{"binder": "B1", "values": [{"measurement": "koff", "setting": "[1]", "result": 0.000686, "unit": "s⁻¹"}, {"measurement": "off-rate ratio to that of mAb747c", "setting": "[1]", "result": 112, "unit": "%"}]}, {"binder": "B2", "values": [{"measurement": "koff", "setting": "[2]", "result": 0.00431, "unit": "s⁻¹"}, {"measurement": "off-rate ratio to that of mAb747c", "setting": "[2]", "result": 352, "unit": "%"}]}, {"binder": "B3", "values": [{"measurement": "koff", "setting": "[3]", "result": 0.000247, "unit": "s⁻¹"}, {"measurement": "off-rate ratio to that of mAb747c", "setting": "[3]", "result": 37, "unit": "%"}]}, {"binder": "B4", "values": [{"measurement": "koff", "setting": "[3]", "result": 0.000295, "unit": "s⁻¹"}, {"measurement": "off-rate ratio to that of mAb747c", "setting": "[3]", "result": 41, "unit": "%"}]}, {"binder": "B5", "values": [{"measurement": "koff", "setting": "[1]", "result": 0.00045, "unit": "s⁻¹"}, {"measurement": "off-rate ratio to that of mAb747c", "setting": "[1]", "result": 73, "unit": "%"}]}, {"binder": "B6", "values": [{"measurement": "koff", "setting": "[3]", "result": 0.000273, "unit": "s⁻¹"}, {"measurement": "off-rate ratio to that of mAb747c", "setting": "[3]", "result": 40, "unit": "%"}]}, {"binder": "B7", "values": [{"measurement": "koff", "setting": "[3]", "result": 0.000292, "unit": "s⁻¹"}, {"measurement": "off-rate ratio to that of mAb747c", "setting": "[3]", "result": 43, "unit": "%"}]}, {"binder": "B8", "values": [{"measurement": "Kd", "setting": "[4]", "result": 2.28, "unit": "nM"}, {"measurement": "koff", "setting": "[4]", "result": 0.000328, "unit": "s⁻¹"}, {"measurement": "kon", "setting": "[4]", "result": 144000, "unit": "M⁻¹ s⁻¹"}, {"measurement": "Kd", "setting": "human PD-1-His protein", "result": 8.86, "unit": "nM"}, {"measurement": "koff", "setting": "human PD-1-His protein", "result": 0.00103, "unit": "s⁻¹"}, {"measurement": "kon", "setting": "human PD-1-His protein", "result": 116000, "unit": "M⁻¹ s⁻¹"}, {"measurement": "Kd", "setting": "Cyno LAG-3-His", "result": 0.167, "unit": "nM"}, {"measurement": "koff", "setting": "Cyno LAG-3-His", "result": "4.7e-05", "unit": "s⁻¹"}, {"measurement": "kon", "setting": "Cyno LAG-3-His", "result": 281000, "unit": "M⁻¹ s⁻¹"}, {"measurement": "Kd", "setting": "Cyno PD-1-His", "result": 3.71, "unit": "nM"}, {"measurement": "koff", "setting": "Cyno PD-1-His", "result": 0.000919, "unit": "s⁻¹"}, {"measurement": "kon", "setting": "Cyno PD-1-His", "result": 248000, "unit": "M⁻¹ s⁻¹"}]}, {"binder": "B9", "values": [{"measurement": "Kd", "setting": "[4]", "result": 1.02, "unit": "nM"}, {"measurement": "koff", "setting": "[4]", "result": 0.000117, "unit": "s⁻¹"}, {"measurement": "kon", "setting": "[4]", "result": 115000, "unit": "M⁻¹ s⁻¹"}, {"measurement": "Kd", "setting": "human PD-1-His protein", "result": 1.28, "unit": "nM"}, {"measurement": "koff", "setting": "human PD-1-His protein", "result": 0.000239, "unit": "s⁻¹"}, {"measurement": "kon", "setting": "human PD-1-His protein", "result": 187000, "unit": "M⁻¹ s⁻¹"}, {"measurement": "Kd", "setting": "Cyno LAG-3-His", "result": 0.428, "unit": "nM"}, {"measurement": "koff", "setting": "Cyno LAG-3-His", "result": "8.17e-05", "unit": "s⁻¹"}, {"measurement": "kon", "setting": "Cyno LAG-3-His", "result": 191000, "unit": "M⁻¹ s⁻¹"}, {"measurement": "Kd", "setting": "Cyno PD-1-His", "result": 3.49, "unit": "nM"}, {"measurement": "koff", "setting": "Cyno PD-1-His", "result": 0.00107, "unit": "s⁻¹"}, {"measurement": "kon", "setting": "Cyno PD-1-His", "result": 306000, "unit": "M⁻¹ s⁻¹"}]}]}
